± gives the uncertainty stated by the source.

Among the data in the supplement of paper PMC12338614 are STK11 functional score values, retold here.

The chains are these.
B1: library; numbered along this chain (parent)
chain: MEVVDPQQLGMFTEGELMSVGMDTFIHRIDSTEVIYQPRRKRAKLIGKYLMGDLLGEGSYGKVKEVLDSETLCRRAVKILKKKKLRRIPNGEANVKKEIQLLRRLRHKNVIQLVDVLYNEEKQKMYMVMEYCVCGMQEMLDSVPEKRFPVCQAHGYFCQLIDGLEYLHSQGIVHKDIKPGNLLLTTGGTLKISDLGVAEALHPFAADDTCRTSQGSPAFQPPEIANGLDTFSGFKVDIWSAGVTLYNITTGLYPFEGDNIYKLFENIGKGSYAIPGDCGPPLSDLLKGMLEYEPAKRFSIRQIRQHSWFRKKHPPAEAPVPIPPSPDTKDRWRSMTVVPYLEDLHGADEDEDLFDIEDDIIYTQDFTVPGQVPEEEASHNGQRRGLPKAVCMNGTEAAQLSTKSRAEGRAPNPARKACSASSKIRRLSACKQQ

The series covers variants of B1. The series can be described thus: STK11 functional score (HeLa growth suppression), rescaled enrichment; synonymous median = 1, nonsense median = 0 (normalised score). The settings on record: with HeLa; variant type: missense. In short, it runs like this: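 Functional scores are post/pre-selection log ratios corrected to wild type, rescaled to synonymous and nonsense medians, merged over codons and replicate transfections, and given bootstrapped error. They come from POPCode libraries of codon-optimised STK11 integrated by Bxb1 at an AAVS1 landing pad in HeLa, three regions each transfected three times, with BFP-negative, mCherry-positive integrants sorted by FACS and tiled gDNA amplicons sequenced on NextSeq.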
As for MEVVDPQQLGMFTEGELMSVGMDTFIHRIDSTEVIYQPRRKRAKLIGKYLMGDLLGEGSYGKVKEVLDSETLCRRAVKILKKKKLRRIPNGEANVKKEIQLLRRLRHKNVIQLVDVLYNEEKQKMYMVMEYCVCGMQEMLDSVPEKRFPVCQAHGYFCQLIDGLEYLHSQGIVHKDIKPGNLLLTTGGTLKISDLGVAEALHPFAADDTCRTSQGSPAFQPPEIANGLDTFSGFKVDIWSAGVTLYNITTGLYPFEGDNIYKLFENIGKGSYAIPGDCGPPLSDLLKGMLEYEPAKRFSIRQIRQHSWFRKKHPPAEAPVPIPPSPDTKDRWRSMTVVPYLEDLHGADEDEDLFDIEDDIIYTQDFTVPGQVPEEEASHNGQRRGLPKAVCMNGTEAAQLSTKSRAEGRAPHPARKACSASSKIRRLSACKQQ [N412H], the STK11 functional score worked out at 1.1 ± 0.46.
For MEVVDPQQLGMFTEGELMSVGMDTFIHRIDSTEVIYQPRRKRAKLIGKYLMGDLLGEGSYGKVKEVLDSETLCRRAVKILKKKKLRRIPNGEANVKKEIQLLRRLRHKNVIQLVDVLYNEEKQKMYMVMEYCVCGMQEMLDSVPEKRFPVCQAHGYFCQLIDGLEYLHSQGIVHKDIKPGNLLLTTGGTLKISDLGVAEALHPFAADDTCRTSQGSPAFQPPEIANGLDTFSGFKVDIWSAGVTLYNITTGLYPFEGDNIYKLFENIGKGSYAIPGDCGPPLSDLLKGMLEYEPAKRFSIRQIRQHSWFRKKHPPAEAPVPIPPSPDTKDRWRSMTVVPYLEDLHGADEDEDLFDIEDDIIYTQDFTVPGQVPEEEASHNGQRRGLPKAVCMNGTEAAQLSTKSRAEGRAPQPARKACSASSKIRRLSACKQQ [N412Q] the value was 1.37 ± 0.27.
For MEVVDPQQLGMFTEGELMSVGMDTFIHRIDSTEVIYQPRRKRAKLIGKYLMGDLLGEGSYGKVKEVLDSETLCRRAVKILKKKKLRRIPNGEANVKKEIQLLRRLRHKNVIQLVDVLYNEEKQKMYMVMEYCVCGMQEMLDSVPEKRFPVCQAHGYFCQLIDGLEYLHSQGIVHKDIKPGNLLLTTGGTLKISDLGVAEALHPFAADDTCRTSQGSPAFQPPEIANGLDTFSGFKVDIWSAGVTLYNITTGLYPFEGDNIYKLFENIGKGSYAIPGDCGPPLSDLLKGMLEYEPAKRFSIRQIRQHSWFRKKHPPAEAPVPIPPSPDTKDRWRSMTVVPYLEDLHGADEDEDLFDIEDDIIYTQDFTVPGQVPEEEASHNGQRRGLPKAVCMNGTEAAQLSTKSRAEGRAPFPARKACSASSKIRRLSACKQQ [N412F] the value was 1.23 ± 0.15.
For MEVVDPQQLGMFTEGELMSVGMDTFIHRIDSTEVIYQPRRKRAKLIGKYLMGDLLGEGSYGKVKEVLDSETLCRRAVKILKKKKLRRIPNGEANVKKEIQLLRRLRHKNVIQLVDVLYNEEKQKMYMVMEYCVCGMQEMLDSVPEKRFPVCQAHGYFCQLIDGLEYLHSQGIVHKDIKPGNLLLTTGGTLKISDLGVAEALHPFAADDTCRTSQGSPAFQPPEIANGLDTFSGFKVDIWSAGVTLYNITTGLYPFEGDNIYKLFENIGKGSYAIPGDCGPPLSDLLKGMLEYEPAKRFSIRQIRQHSWFRKKHPPAEAPVPIPPSPDTKDRWRSMTVVPYLEDLHGADEDEDLFDIEDDIIYTQDFTVPGQVPEEEASHNGQRRGLPKAVCMNGTEAAQLSTKSRAEGRAPVPARKACSASSKIRRLSACKQQ [N412V] the value was 1.33 ± 0.2.
Turning to MEVVDPQQLGMFTEGELMSVGMDTFIHRIDSTEVIYQPRRKRAKLIGKYLMGDLLGEGSYGKVKEVLDSETLCRRAVKILKKKKLRRIPNGEANVKKEIQLLRRLRHKNVIQLVDVLYNEEKQKMYMVMEYCVCGMQEMLDSVPEKRFPVCQAHGYFCQLIDGLEYLHSQGIVHKDIKPGNLLLTTGGTLKISDLGVAEALHPFAADDTCRTSQGSPAFQPPEIANGLDTFSGFKVDIWSAGVTLYNITTGLYPFEGDNIYKLFENIGKGSYAIPGDCGPPLSDLLKGMLEYEPAKRFSIRQIRQHSWFRKKHPPAEAPVPIPPSPDTKDRWRSMTVVPYLEDLHGADEDEDLFDIEDDIIYTQDFTVPGQVPEEEASHNGQRRGLPKAVCMNGTEAAQLSTKSRAEGRAPMPARKACSASSKIRRLSACKQQ [N412M], the STK11 functional score worked out at 0.405 ± 0.69.
The value for MEVVDPQQLGMFTEGELMSVGMDTFIHRIDSTEVIYQPRRKRAKLIGKYLMGDLLGEGSYGKVKEVLDSETLCRRAVKILKKKKLRRIPNGEANVKKEIQLLRRLRHKNVIQLVDVLYNEEKQKMYMVMEYCVCGMQEMLDSVPEKRFPVCQAHGYFCQLIDGLEYLHSQGIVHKDIKPGNLLLTTGGTLKISDLGVAEALHPFAADDTCRTSQGSPAFQPPEIANGLDTFSGFKVDIWSAGVTLYNITTGLYPFEGDNIYKLFENIGKGSYAIPGDCGPPLSDLLKGMLEYEPAKRFSIRQIRQHSWFRKKHPPAEAPVPIPPSPDTKDRWRSMTVVPYLEDLHGADEDEDLFDIEDDIIYTQDFTVPGQVPEEEASHNGQRRGLPKAVCMNGTEAAQLSTKSRAEGRAPKPARKACSASSKIRRLSACKQQ [N412K] was 0.831 ± 0.33; that for MEVVDPQQLGMFTEGELMSVGMDTFIHRIDSTEVIYQPRRKRAKLIGKYLMGDLLGEGSYGKVKEVLDSETLCRRAVKILKKKKLRRIPNGEANVKKEIQLLRRLRHKNVIQLVDVLYNEEKQKMYMVMEYCVCGMQEMLDSVPEKRFPVCQAHGYFCQLIDGLEYLHSQGIVHKDIKPGNLLLTTGGTLKISDLGVAEALHPFAADDTCRTSQGSPAFQPPEIANGLDTFSGFKVDIWSAGVTLYNITTGLYPFEGDNIYKLFENIGKGSYAIPGDCGPPLSDLLKGMLEYEPAKRFSIRQIRQHSWFRKKHPPAEAPVPIPPSPDTKDRWRSMTVVPYLEDLHGADEDEDLFDIEDDIIYTQDFTVPGQVPEEEASHNGQRRGLPKAVCMNGTEAAQLSTKSRAEGRAPSPARKACSASSKIRRLSACKQQ [N412S] was 1.48 ± 0.23; that for MEVVDPQQLGMFTEGELMSVGMDTFIHRIDSTEVIYQPRRKRAKLIGKYLMGDLLGEGSYGKVKEVLDSETLCRRAVKILKKKKLRRIPNGEANVKKEIQLLRRLRHKNVIQLVDVLYNEEKQKMYMVMEYCVCGMQEMLDSVPEKRFPVCQAHGYFCQLIDGLEYLHSQGIVHKDIKPGNLLLTTGGTLKISDLGVAEALHPFAADDTCRTSQGSPAFQPPEIANGLDTFSGFKVDIWSAGVTLYNITTGLYPFEGDNIYKLFENIGKGSYAIPGDCGPPLSDLLKGMLEYEPAKRFSIRQIRQHSWFRKKHPPAEAPVPIPPSPDTKDRWRSMTVVPYLEDLHGADEDEDLFDIEDDIIYTQDFTVPGQVPEEEASHNGQRRGLPKAVCMNGTEAAQLSTKSRAEGRAPLPARKACSASSKIRRLSACKQQ [N412L] was 1.62 ± 0.21.
The value for MEVVDPQQLGMFTEGELMSVGMDTFIHRIDSTEVIYQPRRKRAKLIGKYLMGDLLGEGSYGKVKEVLDSETLCRRAVKILKKKKLRRIPNGEANVKKEIQLLRRLRHKNVIQLVDVLYNEEKQKMYMVMEYCVCGMQEMLDSVPEKRFPVCQAHGYFCQLIDGLEYLHSQGIVHKDIKPGNLLLTTGGTLKISDLGVAEALHPFAADDTCRTSQGSPAFQPPEIANGLDTFSGFKVDIWSAGVTLYNITTGLYPFEGDNIYKLFENIGKGSYAIPGDCGPPLSDLLKGMLEYEPAKRFSIRQIRQHSWFRKKHPPAEAPVPIPPSPDTKDRWRSMTVVPYLEDLHGADEDEDLFDIEDDIIYTQDFTVPGQVPEEEASHNGQRRGLPKAVCMNGTEAAQLSTKSRAEGRAPEPARKACSASSKIRRLSACKQQ [N412E] was 1.52 ± 0.17; that for MEVVDPQQLGMFTEGELMSVGMDTFIHRIDSTEVIYQPRRKRAKLIGKYLMGDLLGEGSYGKVKEVLDSETLCRRAVKILKKKKLRRIPNGEANVKKEIQLLRRLRHKNVIQLVDVLYNEEKQKMYMVMEYCVCGMQEMLDSVPEKRFPVCQAHGYFCQLIDGLEYLHSQGIVHKDIKPGNLLLTTGGTLKISDLGVAEALHPFAADDTCRTSQGSPAFQPPEIANGLDTFSGFKVDIWSAGVTLYNITTGLYPFEGDNIYKLFENIGKGSYAIPGDCGPPLSDLLKGMLEYEPAKRFSIRQIRQHSWFRKKHPPAEAPVPIPPSPDTKDRWRSMTVVPYLEDLHGADEDEDLFDIEDDIIYTQDFTVPGQVPEEEASHNGQRRGLPKAVCMNGTEAAQLSTKSRAEGRAPTPARKACSASSKIRRLSACKQQ [N412T] was 1.09 ± 0.53.
For MEVVDPQQLGMFTEGELMSVGMDTFIHRIDSTEVIYQPRRKRAKLIGKYLMGDLLGEGSYGKVKEVLDSETLCRRAVKILKKKKLRRIPNGEANVKKEIQLLRRLRHKNVIQLVDVLYNEEKQKMYMVMEYCVCGMQEMLDSVPEKRFPVCQAHGYFCQLIDGLEYLHSQGIVHKDIKPGNLLLTTGGTLKISDLGVAEALHPFAADDTCRTSQGSPAFQPPEIANGLDTFSGFKVDIWSAGVTLYNITTGLYPFEGDNIYKLFENIGKGSYAIPGDCGPPLSDLLKGMLEYEPAKRFSIRQIRQHSWFRKKHPPAEAPVPIPPSPDTKDRWRSMTVVPYLEDLHGADEDEDLFDIEDDIIYTQDFTVPGQVPEEEASHNGQRRGLPKAVCMNGTEAAQLSTKSRAEGRAPGPARKACSASSKIRRLSACKQQ [N412G], the STK11 functional score came to 1.63 ± 0.15.
The value for MEVVDPQQLGMFTEGELMSVGMDTFIHRIDSTEVIYQPRRKRAKLIGKYLMGDLLGEGSYGKVKEVLDSETLCRRAVKILKKKKLRRIPNGEANVKKEIQLLRRLRHKNVIQLVDVLYNEEKQKMYMVMEYCVCGMQEMLDSVPEKRFPVCQAHGYFCQLIDGLEYLHSQGIVHKDIKPGNLLLTTGGTLKISDLGVAEALHPFAADDTCRTSQGSPAFQPPEIANGLDTFSGFKVDIWSAGVTLYNITTGLYPFEGDNIYKLFENIGKGSYAIPGDCGPPLSDLLKGMLEYEPAKRFSIRQIRQHSWFRKKHPPAEAPVPIPPSPDTKDRWRSMTVVPYLEDLHGADEDEDLFDIEDDIIYTQDFTVPGQVPEEEASHNGQRRGLPKAVCMNGTEAAQLSTKSRAEGRAPIPARKACSASSKIRRLSACKQQ [N412I] was 1.21 ± 0.43.
As to MEVVDPQQLGMFTEGELMSVGMDTFIHRIDSTEVIYQPRRKRAKLIGKYLMGDLLGEGSYGKVKEVLDSETLCRRAVKILKKKKLRRIPNGEANVKKEIQLLRRLRHKNVIQLVDVLYNEEKQKMYMVMEYCVCGMQEMLDSVPEKRFPVCQAHGYFCQLIDGLEYLHSQGIVHKDIKPGNLLLTTGGTLKISDLGVAEALHPFAADDTCRTSQGSPAFQPPEIANGLDTFSGFKVDIWSAGVTLYNITTGLYPFEGDNIYKLFENIGKGSYAIPGDCGPPLSDLLKGMLEYEPAKRFSIRQIRQHSWFRKKHPPAEAPVPIPPSPDTKDRWRSMTVVPYLEDLHGADEDEDLFDIEDDIIYTQDFTVPGQVPEEEASHNGQRRGLPKAVCMNGTEAAQLSTKSRAEGRAPRPARKACSASSKIRRLSACKQQ [N412R], the STK11 functional score is 1.57 ± 0.2.
MEVVDPQQLGMFTEGELMSVGMDTFIHRIDSTEVIYQPRRKRAKLIGKYLMGDLLGEGSYGKVKEVLDSETLCRRAVKILKKKKLRRIPNGEANVKKEIQLLRRLRHKNVIQLVDVLYNEEKQKMYMVMEYCVCGMQEMLDSVPEKRFPVCQAHGYFCQLIDGLEYLHSQGIVHKDIKPGNLLLTTGGTLKISDLGVAEALHPFAADDTCRTSQGSPAFQPPEIANGLDTFSGFKVDIWSAGVTLYNITTGLYPFEGDNIYKLFENIGKGSYAIPGDCGPPLSDLLKGMLEYEPAKRFSIRQIRQHSWFRKKHPPAEAPVPIPPSPDTKDRWRSMTVVPYLEDLHGADEDEDLFDIEDDIIYTQDFTVPGQVPEEEASHNGQRRGLPKAVCMNGTEAAQLSTKSRAEGRAPPPARKACSASSKIRRLSACKQQ [N412P]: the STK11 functional score turned out to be 1.56 ± 0.35.
